# Data: US20260217825A1 (CHIMAGEN BIOSCIENCES, published 2026)
# Read-outs that look alike come from different tables or passages of the source.
# Key:
# human GPRC5D on cells [1] = target: T1, human GPRC5D on cells (human, UniProt Q9NZD1 1-345); assay: flow cytometry, MM.1R cell binding
# T1 construct: whole, on cells; Either overexpressed in HEK293, CHOS or HEK293T cells, or naturally expressed on human myeloma cell lines; also called hGPRC5D; HEK293-hGPRC5D
# Description: (§1) After the cells were digested with TrypLE, the digested cells were centrifuged and resuspended in a DPBS solution containing 2% BSA (FACS buffer, 4° C.), added into a 96-well plate with a U-shaped bottom in an amount of 5× 10⁵ cells/100 μl/well, added with antibody diluted over concentration gradient, and incubated at 4° C. for 1 hr. After centrifugation, the supernatant was discarded. 100 μl of anti-human IgG Fc-APC secondary antibody was added to each well and incubated at 4° C. for 1 hr. Then the cells were washed once with a FACS buffer, and resuspended in 200 μl FACS buffer. The fluorescence signal was read on BD CantoII.
# human GPRC5D on cells [2] = target: T1, human GPRC5D on cells; assay: flow cytometry, NCI-H929 cell binding
# Description: as §1
# human GPRC5D on cells [3] = target: T1, human GPRC5D on cells; assay: flow cytometry, RPMI-8226 cell binding
# Description: as §1
# human GPRC5D on cells [4] = target: T1, human GPRC5D on cells; assay: FACS on MM.1R cells (natural GPRC5D), anti-human IgG Fc-APC secondary; fit table under the curves
# Description: as §1
# human GPRC5D on cells [5] = target: T1, human GPRC5D on cells; assay: FACS on NCI-H929 cells (natural GPRC5D), anti-human IgG Fc-APC secondary; fit table under the curves
# Description: as §1
# human GPRC5D on cells [6] = target: T1, human GPRC5D on cells; assay: FACS on RPMI-8226 cells (natural GPRC5D), anti-human IgG Fc-APC secondary; fit table under the curves
# Description: as §1
# human GPRC5D on cells [7] = target: T1, human GPRC5D on cells; assay: FACS on CHOS cells expressing hGPRC5D (sheet title: CHOS-hGPRC5D sorted), anti-human IgG Fc-APC secondary; fit table under the curves
# Description: (§2) After centrifugation, […] and CHOS-hGPRC5D cells expressing hGPRC5D were resuspended in a DPBS solution (FACS buffer, 4° C.) containing 2% BSA, added to a 96-well plate with a U-shaped bottom in an amount of 5×10⁵ cells/100 μl/well, added with antibody diluted over concentration gradient, and incubated at 4° C. for 1 hr. After centrifugation, the supernatant was discarded. 100 μl of anti-human IgG Fc-APC secondary antibody was added to each well and incubated at 4° C. for 1 hr. Then the cells were washed once with a FACS buffer, and resuspended in 200 μl FACS buffer. The fluorescence signal was read on BD CantoII.
# human GPRC5D on cells [8] = target: T1, human GPRC5D on cells; assay: FACS on HEK293 cells expressing hGPRC5D (sheet title: 293T-hGPRC5D sorted), anti-human IgG Fc-APC secondary; fit table under the curves
# Description: as §2
# human GPRC5D on cells [9] = target: T1, human GPRC5D on cells; assay: FACS on CHOS cells expressing hGPRC5D (sheet title: CHOS-hGPRC5D sorted), anti-human IgG Fc-APC secondary; fit table under the curves, unit from the axis Log Conc.(ug/ml)
# Description: as §2
# human GPRC5D on cells [10] = target: T1, human GPRC5D on cells; assay: FACS on HEK293 cells expressing hGPRC5D (sheet title: 293T-hGPRC5D sorted), anti-human IgG Fc-APC secondary; fit table under the curves, unit from the axis Log Conc.(ug/ml)
# Description: as §2
# [11] = target: T2, recombinant GPRC5D antigen (Human GPRC5D protein-Flag-His tag (51.8KD) ACRO Cat: GPD-H52D3) (human, UniProt Q9NZD1 1-345, limits assumed); assay: BLI (Octet R8), recombinant GPRC5D antigen
# T2 construct: Bought protein; also called CPRG5D; not shown: Flag-His tag
# T2 sequence (Q9NZD1 whole entry): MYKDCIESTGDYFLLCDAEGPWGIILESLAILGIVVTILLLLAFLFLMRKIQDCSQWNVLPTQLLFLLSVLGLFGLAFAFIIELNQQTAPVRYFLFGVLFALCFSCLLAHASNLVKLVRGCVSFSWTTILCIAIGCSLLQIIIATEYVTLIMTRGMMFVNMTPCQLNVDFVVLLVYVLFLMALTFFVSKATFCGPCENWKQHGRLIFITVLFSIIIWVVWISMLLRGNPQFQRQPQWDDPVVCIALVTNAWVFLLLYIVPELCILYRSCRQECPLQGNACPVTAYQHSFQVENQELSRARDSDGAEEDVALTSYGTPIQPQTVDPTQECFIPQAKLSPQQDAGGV
# Description: The recombinant GPRC5D antigen (Human GPRC5D protein-Flag-His tag (51.8KD) ACRO Cat: GPD-H52D3) was immobilized on a chip and detected by Octet® R8 biomolecular interaction analysis system.
# [12] = target: T3, recombinant CD3e antigen (Human CD3 epsilon Protein, His Tag, ACRO Cat: CDE-H5223) (human, UniProt P07766 23-126); assay: BLI (Octet R8), recombinant CD3e antigen
# T3 construct: Bought protein; also called CD3 antigen; not shown: His tag
# T3 sequence (P07766 23-126 limits assumed): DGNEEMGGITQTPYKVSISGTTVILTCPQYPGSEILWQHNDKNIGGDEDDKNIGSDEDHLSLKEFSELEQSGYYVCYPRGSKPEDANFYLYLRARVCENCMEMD
# Description: (§3) The recombinant CD3e antigen (Human CD3 epsilon Protein, His Tag, ACRO Cat: CDE-H5223) and recombinant GPRC5D antigen (Human GPRC5D protein-Flag-His tag (51.8KD) ACRO Cat: GPD-H52D3) were immobilized on a chip and detected by Octet® R8 biomolecular interaction analysis system.
# [13] = target: T2, recombinant GPRC5D antigen (Human …); assay: BLI (Octet R8), recombinant GPRC5D antigen; remark: listed apart in the source
# Description: as §3
# human GPRC5D on cells [14] = target: T1, human GPRC5D on cells; assay: cell-based binding assay on HEK293T-hGPRC5D
# Description: (§4) HEK293T-hGPRC5D or HEK293T-cynoGPRC5D cells in logarithmic growth phase were inoculated into a 96-well culture plate, and the antibodies at different concentrations (200, 66.7, 22.22, 7.41, 2.47, 0.82, 0.27, 0.09, 0.03, and 0.01 nM) was added. 2 duplicate wells were set for each concentration and a negative control (PBS) well was also set. The cells were incubated at 25° C. for about 60 minutes and then developed and detected. The raw data of the test was the difference between the detection wavelength and the reference wavelength. A dose-response curve was fitted using statistical software, based on OD value and the logarithmic value of the concentration, from which the EC50 was obtained.
# [15] = target: T4, cynomolgus monkey GPRC5D on HEK293T cells (cynomolgus monkey); assay: cell-based binding assay on HEK293T-cynoGPRC5D
# T4 construct: whole, on cells; also called HEK293T-cynoGPRC5D; Cynomolgus GPRC5D
# Description: as §4
# T1 sequence (Q9NZD1 whole entry): as the sequence (Q9NZD1 whole entry) above
binder,measurement,setting,value
"ch-72C7 chimeric recombinant antibody (antibody, V domains shown, also called ch-72C7 antibody; antibody ch-72C7) VH: QVQLQQPGAELVKPGTSVKLSCKASGYPFTNYWMHWVRQRPGQGLEWIGEINPSNGRTNYNEKFKSLATLTLDKSSSTAYMHLNSLTSEDSAVYYCARGFAYWGQGTLVTVSA VL: QIVLSQFPAIMSASPGEKVTMTCSASSSVSFMHWYQQKSGTSPKRWIYDTTKLASGVPARFTGSGSGTSYSLTISSMEAEDAATYYCQQWNSHPLTFGPGTKLELK",EC50,human GPRC5D on cells [1],0.62 µg/mL
same,EC50,human GPRC5D on cells [2],0.485 µg/mL
same,EC50,human GPRC5D on cells [3],0.916 µg/mL
same,LogEC50,human GPRC5D on cells [4],-0.207 log(ug/ml)
same,LogEC50,human GPRC5D on cells [5],-0.314 log(ug/ml)
same,LogEC50,human GPRC5D on cells [6],-0.0379 log(ug/ml)
same,LogEC50,human GPRC5D on cells [7],0.198 log(ug/ml)
same,LogEC50,human GPRC5D on cells [8],-0.309 log(ug/ml)
same,EC50,human GPRC5D on cells [9],1.58 µg/mL
same,EC50,human GPRC5D on cells [10],0.49 µg/mL
"humanized antibody 22Mono5JO4 (antibody, human IgG1, V domains shown) VH: QVQLVQSGAEVKKPGSSVKVSCRASGYPFTNYWMHWVRQAPGQGLEWIGEINPSNGRTNYNEKFKSRATLTLDKLTSTAYMELSSLTSEDTALYYCARGFAYWGQGTLVTVSS VL: EIVLTQSPGTLSLSPGERATLSCSASSSVSFMHWYQQKPGQAPRRWIYDTTKLASGIPDRFSGSGSGTDYTLTISRLEPEDFAVYYCQQWNSHPLTFGQGTTVEIK",Kd,[11],0.787 nM
same,koff,[11],0.000119 s⁻¹
same,kon,[11],151000 M⁻¹ s⁻¹
"humanized antibody 22Mono3L7F (antibody, human IgG1, V domains shown, also called 22monoO3L7) VH: EVTLKESGPVLVKPTETLTLTCTASGYPFTNYWMHWVRQPPGKALEWIGEINPSNGRTNYNEKFKSRATLSLDKSKSQAVLTMTNMDPVDTATYYCARGFAYWGQGTLVTVSS VL: EIVLTQSPATLSLSPGERATLSCSASSSVSFMHWYQQKPGQAPRRWIYDTTKLASGIPARFSGSGSGTDYTLTISSLEPEDFAVYYCQQWNSHPLTFGQGTKLEIK",Kd,[11],25.6 nM
same,koff,[11],0.002 s⁻¹
same,kon,[11],78000 M⁻¹ s⁻¹
"humanized antibody 22Mono4DN4 (antibody, human IgG1, V domains shown) VH: ELVQSGAEVKKPGSSVKVSCKASGYPFTNYWMHWVRQAPGQGLEWIGEINPSNGRTNYNEKFKSRATLTLDKSTSTAYMELSSLRSEDTAVYYCARGFAYWGQGTLVTVSS VL: EIVLTQSPATLSLSPGERATLSCSASSSVSFMHWYQQKPGQAPRRWIYDTTKLASGVPARFSGSGSGTDYTLTISSLEPEDFAVYYCQQWNSHPLTFGQGTKVEIK",Kd,[11],16.9 nM
same,koff,[11],0.00114 s⁻¹
same,kon,[11],67300 M⁻¹ s⁻¹
"humanized antibody 22Mono5UQY (antibody, human IgG1, V domains shown, also called 22MonoSUQY) VH: QVQLQESGPGLVKPSETLSLTCTASGYPFTNYWMHWVRQPPGKGLEWIGEINPSNGRTNYNEKFKSRATLSLDKSKNQASLNLDSVSAADTAIYYCARGFAYWGKGSTVTVSS VL: AIQLTQSPSSLSASVGDRVTITCSASSSVSFMHWYQQKPGKAPKRWIYDTTKLASGVPSRFSGSGSGTDYTFTISSLQPEDIATYYCQQWNSHPLTFGPGTKVDIK",Kd,[11],5.67 nM
same,koff,[11],0.000489 s⁻¹
same,kon,[11],86200 M⁻¹ s⁻¹
"humanized CD3xGPRC5D bispecific antibody 22A8 (Structure D) (bispecific antibody, First polypeptide: VH1(GPRC5D, humanized)-CH1a-Fc; Second and fifth polypeptides are identical: VL(GPRC5D, humanized)-CLa; Third polypeptide: VH2(CD3)-CH1b-Fc; Fourth polypeptide: VH3(GPRC5D, humanized)-CH1a-linker-VL2(CD3)-CLb; Fc mutations are knob-into-hole (T366W; Y407V, T366S, L368A)) heavy 1: QVQLVQSGAEVKKPGSSVKVSCRASGYPFTNYWMHWVRQAPGQGLEWIGEINPSNGRTNYNEKFKSRATLTLDKLTSTAYMELSSLTSEDTALYYCARGFAYWGQGTLVTVSSASTKGPSVFPLAPSSKSTSGGTAALGCLVKDYFPEPVTVSWNSGALTSGVHTFPAVLQSSGLYSLSSVVTVPSSSLGTQTYICNVNHKPSNTKVDKKVEPKSCDKTHTCPPCPAPPVAGPSVFLFPPKPKDTLMISRTPEVTCVVVDVSQEDPEVKFNWYVDGVEVHNAKTKPREEQFNSTYRVVSVLTVLHQDWLNGKEYKCKVSNKGLPSSIEKTISKAKGQPREPQVYTLPPSRDELTKNQVSLSCAVKGFYPSDIAVEWESNGQPENNYKTTPPVLDSDGSFFLVSKLTVDKSRWQQGNVFSCSVMHEALHNRFTQKSLSLSP light: EIVLTQSPGTLSLSPGERATLSCSASSSVSFMHWYQQKPGQAPRRWIYDTTKLASGIPDRFSGSGSGTDYTLTISRLEPEDFAVYYCQQWNSHPLTFGQGTTVEIKRTVAAPSVFIFPPSDEQLKSGTASVVCLLNNFYPREAKVQWKVDNALQSGNSQESVTEQDSKDSTYSLSSTLTLSKADYEKHKVYACEVTHQGLSSPVTKSFNRGEC heavy 2: EVQLVESGGGLVQPGGSLRLSCAASGFTFSTYAMNWVRQAPGKGLEWVGRIRSKYNNYATYYADSVKGRFTISRDDSKNSLYLQMNSLRAEDTAVYYCVRHGNFGTSYVSWFAYWGQGTLVTVSSASTKGPSVFPLAPSSKSTSGGTAKLGCLVKDYFPEPVTVSWNSGALTSGVHTFPACLQSSGLYSLSSVVTVPSSSLGTQTYICNVNHKPSNTKVDKKVEPKSSDKTHTCPPCPAPELLAGPDVFLFPPKPKDTLMISRTPEVTCVVVDVSHEDPEVKFNWYVDGVEVHNAKTKPREEQYNSTYRVVSVLTVLHQDWLNGKEYKCKVSNKALPLPEEKTISKAKGQPREPQVYTLPPSRDELTKNQVSLWCLVKGFYPSDIAVEWESNGQPENNYKTTPPVLDSDGSFFLYSKLTVDKSRWQQGNVFSCSVMHEALHNHYTQKSLSLSP QVQLVQSGAEVKKPGSSVKVSCRASGYPFTNYWMHWVRQAPGQGLEWIGEINPSNGRTNYNEKFKSRATLTLDKLTSTAYMELSSLTSEDTALYYCARGFAYWGQGTLVTVSSASTKGPSVFPLAPSSKSTSGGTAALGCLVKDYFPEPVTVSWNSGALTSGVHTFPAVLQSSGLYSLSSVVTVPSSSLGTQTYICNVNHKPSNTKVDKKVEPKSCDGGGGSGGGGSQAVVTQEPSLTVSPGGTVTLTCRSSTGAVTTSNYANWVQQKPGQAPRGLIGGTNKRAPWTPARFSGSLLGGKAALTLSGAQAEDEADYYCALWYSNLWVFGGGTKLTVLRTVAAPSVDIFPPSDEQLKSGTASVVCLLNNFYPREAKVQWKVDNALQSGNSCESVTEQDSKDSTYSLSSTLTLSKADYEKHKVYACEVTHQGLSSPVTKSFNRGES",Kd,[12],30 nM
same,koff,[12],0.00381 s⁻¹
same,kon,[12],127000 M⁻¹ s⁻¹
same,Kd,[13],9.47 nM
same,koff,[13],0.000596 s⁻¹
same,kon,[13],62900 M⁻¹ s⁻¹
same,EC50,human GPRC5D on cells [14],3.86 nM
same,EC50,[15],10.1 nM
